B1: WtR3-36-648/HPSE (dsDNA)
DNA 1: AAAAGTGCCCAGAGCCCATGA
DNA 2: TCATGGGCTCTGGGCACTTTT
B2: MtR3-36-648/HPSE (dsDNA)
DNA 1: AAAAGTATTCAGGGCCCATGA
DNA 2: TCATGGGCCCTGAATACTTTT
B3: WtR3-36-676/HPSE (dsDNA)
DNA 1: AATGTGGCCCTGGTCACTTAG
DNA 2: CTAAGTGACCAGGGCCACATT
B4: MtR3-36-676/HPSE (dsDNA)
DNA 1: AATGTGATTCTGATCACTTAG
DNA 2: CTAAGTGATCAGAATCACATT
B5: WtR4-28-854/CDH2 (dsDNA)
DNA 1: ATGCGACCTGCAGGCATGCCA
DNA 2: TGGCATGCCTGCAGGTCGCAT
B6: MtR4-28-854/CDH2 (dsDNA)
DNA 1: ATGCGACCCGCAAATATGCCA
DNA 2: TGGCATATTTGCGGGTCGCAT
B7: WtR1-15-286/IGSF11 (dsDNA)
DNA 1: TTTGCTGCCTTTGTCCTGTAG
DNA 2: CTACAGGACAAAGGCAGCAAA
B8: MtR1-15-286/IGSF11 (dsDNA)
DNA 1: TTTGCTATTTTTATCCTGTAG
DNA 2: CTACAGGATAAAAATAGCAAA
B9: HMT (dsDNA)
DNA 1: AACGGACCGCCCGCGGCCCGT
DNA 2: ACGGGCCGCGGGCGGTCCGTT

In one data set the target is T1, GST-AP-2γ (UniProt Q92754 1-450). Kind of data set: EMSA; 10 mM HEPES pH 8.0, 60 mM KCl, 4 mM MgCl2, 0.1 mM EDTA, 100 μg/ml BSA, 0.25 mM DTT, 10% glycerol, 37°C 20 min; 5 pmol probe, 50 pmol protein in 15 μl; 6% native PAGE. To be noted: protein: recombinant; tags: GST (N-terminal, pGEX-4T-2); chain copies: 2; label: 32P 5' end of forward strand; blunt.
T1 sequence (Q92754 whole entry): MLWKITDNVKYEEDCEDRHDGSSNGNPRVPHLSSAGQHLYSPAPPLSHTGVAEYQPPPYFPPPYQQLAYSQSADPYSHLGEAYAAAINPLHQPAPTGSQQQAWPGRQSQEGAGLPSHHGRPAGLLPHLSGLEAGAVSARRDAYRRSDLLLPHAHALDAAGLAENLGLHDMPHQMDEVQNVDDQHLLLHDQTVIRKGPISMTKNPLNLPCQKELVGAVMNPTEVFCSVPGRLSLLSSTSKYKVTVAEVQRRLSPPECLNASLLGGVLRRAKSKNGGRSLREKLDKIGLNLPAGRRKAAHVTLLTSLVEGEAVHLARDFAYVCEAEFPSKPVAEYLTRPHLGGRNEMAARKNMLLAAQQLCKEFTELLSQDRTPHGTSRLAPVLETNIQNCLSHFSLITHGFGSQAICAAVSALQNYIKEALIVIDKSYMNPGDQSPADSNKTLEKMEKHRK
In the case of B1, the binding result was “binds”. As to B2, the binding result is “no binding”. The same measure, in the same setting: under B3 stands “no binding”.

Regarding B4, the binding result is recorded as “no binding”. The same measure, in the same setting: under B5 stands “binds”. B6: the binding result is recorded as “no binding”.

With B7, the binding result was “binds”. Still for that read-out and setting: as for B8, the entry is “no binding”.

Another data set concerns the target T1, GST-AP-2γ. As to the kind of experiment: competition; 10- or 50-fold excess unlabeled vs wild-type HPSE-648, CDH2-854, IGSF11-286 probes; markedly decreased binding; 10 mM HEPES pH 8.0, 60 mM KCl, 4 mM MgCl2, 0.1 mM EDTA, 100 μg/ml BSA, 0.25 mM DTT, 10% glycerol, 37°C 20 min; 5 pmol probe, 50 pmol protein in 15 μl; 6% native PAGE. Particulars: protein: recombinant; tags: GST (N-terminal, pGEX-4T-2); chain copies: 2; blunt.
As for B9, the binding result was “binds”.

Values taken from publication PMC3224728, “Identification of target genes of transcription factor activator protein 2 gamma in breast cancer cells”.
